The target in this assay is integrin α2β1 on human platelets (human (endogenous in platelets)) (UniProt P17301). The experiment in a line: flow cytometry on cells. A general note: A flow cytometer gives signals particle by particle.
Sequence of UniProt P17301 (P17301 30-1181, chain 1 of 2): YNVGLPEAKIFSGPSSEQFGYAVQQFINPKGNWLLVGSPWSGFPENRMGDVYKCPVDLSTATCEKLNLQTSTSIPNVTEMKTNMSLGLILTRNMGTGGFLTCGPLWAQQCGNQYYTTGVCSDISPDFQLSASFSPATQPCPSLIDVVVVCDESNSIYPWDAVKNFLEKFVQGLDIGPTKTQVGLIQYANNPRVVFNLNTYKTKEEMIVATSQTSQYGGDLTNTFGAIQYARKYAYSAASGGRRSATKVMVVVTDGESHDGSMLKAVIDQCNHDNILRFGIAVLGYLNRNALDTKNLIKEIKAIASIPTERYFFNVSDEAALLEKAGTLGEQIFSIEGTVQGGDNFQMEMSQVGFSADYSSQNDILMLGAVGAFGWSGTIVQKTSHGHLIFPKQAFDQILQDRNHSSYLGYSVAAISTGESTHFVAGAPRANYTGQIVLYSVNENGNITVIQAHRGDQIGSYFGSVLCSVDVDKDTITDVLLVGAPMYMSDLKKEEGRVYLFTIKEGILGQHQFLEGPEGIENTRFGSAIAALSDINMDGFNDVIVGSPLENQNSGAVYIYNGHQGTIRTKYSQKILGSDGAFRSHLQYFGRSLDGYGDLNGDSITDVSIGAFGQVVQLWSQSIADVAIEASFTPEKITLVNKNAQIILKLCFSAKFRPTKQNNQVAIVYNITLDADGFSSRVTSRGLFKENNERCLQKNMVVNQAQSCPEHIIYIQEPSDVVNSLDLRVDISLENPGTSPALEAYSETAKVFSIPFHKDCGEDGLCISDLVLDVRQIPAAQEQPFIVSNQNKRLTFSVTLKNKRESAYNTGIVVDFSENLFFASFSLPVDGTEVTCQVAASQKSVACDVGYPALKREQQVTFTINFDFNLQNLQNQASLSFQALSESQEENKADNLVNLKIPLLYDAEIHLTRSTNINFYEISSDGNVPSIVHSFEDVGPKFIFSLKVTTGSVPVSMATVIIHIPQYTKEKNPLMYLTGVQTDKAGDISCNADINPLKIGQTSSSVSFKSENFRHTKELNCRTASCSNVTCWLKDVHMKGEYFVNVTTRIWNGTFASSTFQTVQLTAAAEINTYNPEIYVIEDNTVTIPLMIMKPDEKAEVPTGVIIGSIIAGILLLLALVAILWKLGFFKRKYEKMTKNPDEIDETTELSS
Sequence of UniProt P17301 (P05556 21-798, chain 2 of 2, further chain): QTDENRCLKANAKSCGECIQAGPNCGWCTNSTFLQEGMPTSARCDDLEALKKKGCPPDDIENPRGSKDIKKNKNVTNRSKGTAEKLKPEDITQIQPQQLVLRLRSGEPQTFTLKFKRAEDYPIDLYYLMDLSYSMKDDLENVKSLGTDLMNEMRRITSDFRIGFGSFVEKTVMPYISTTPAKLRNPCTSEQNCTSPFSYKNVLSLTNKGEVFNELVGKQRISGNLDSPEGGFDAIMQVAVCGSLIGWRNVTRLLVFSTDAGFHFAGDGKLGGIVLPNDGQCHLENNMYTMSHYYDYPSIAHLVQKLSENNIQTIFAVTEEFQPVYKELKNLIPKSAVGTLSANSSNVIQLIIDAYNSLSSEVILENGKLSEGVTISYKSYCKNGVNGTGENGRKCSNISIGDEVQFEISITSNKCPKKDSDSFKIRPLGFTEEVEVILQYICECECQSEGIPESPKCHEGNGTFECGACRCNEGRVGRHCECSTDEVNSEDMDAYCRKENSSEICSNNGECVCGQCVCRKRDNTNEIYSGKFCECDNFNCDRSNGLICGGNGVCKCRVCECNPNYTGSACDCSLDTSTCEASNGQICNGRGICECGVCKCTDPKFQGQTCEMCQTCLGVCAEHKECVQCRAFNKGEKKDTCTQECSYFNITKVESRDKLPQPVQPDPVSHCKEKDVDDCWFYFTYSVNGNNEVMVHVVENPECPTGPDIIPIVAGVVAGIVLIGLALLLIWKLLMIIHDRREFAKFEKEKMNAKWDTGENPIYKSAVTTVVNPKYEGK

In the case of “Rhinocetin (heterodimeric snaclec from the venom of Bitis gabonica rhinoceros) (complex)”, the percent inhibition of 6F1 antibody binding at 50 μg/ml came to 65% and the percent inhibition of 6F1 antibody binding at 100 μg/ml was 90%.

The record behind these values is paper PMC3406708.
